The supplement of paper PMC12636428

System: Saccharomyces cerevisiae
Assay: transcriptional activation domain activity (GFP:mCherry ratio, weighted mean of sorted bins, harmonized to initial dataset scale) (arbitrary fluorescence ratio units); higher = stronger transcriptional activation
Conditions: beta-estradiol 1 µM; induction time 4 h
In short: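 Protein tiles carrying barcodes and fused to an estradiol-inducible synthetic transcription factor were placed at the URA3 locus of yeast diploids with a GFP reporter. Following 4 hours at 30 °C in SC with 1 uM beta-estradiol, cells were sorted into 8 GFP:mCherry bins, barcodes were sequenced, and tiles with fewer than 50 reads were discarded. Activation activity is given as the read-weighted mean of bin median fluorescence, averaged across barcodes and linearly mapped to the initial dataset scale.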

Sequence | transcriptional activation domain activity
LQCEGFTLRVPFVVDDTFYALMRCFDFFTIDEDPELWRLWCSLLRYALRLQNG | 40200
LQCLLLSVLSPIGLVLLYSHLIGTDLIVIVSQLMFDYQVVQSWFIIFVCLVYW | 57400
LQHLVVPILFLGPLYATYLNQTLPFQAFWDYDEYVLRKYFSFMGLRTYIIGPI | 52300
LQHRTWLIHWSLFPLFNYEQARETLTELFFSAPYINTIQTNCPWILRYLAAAV | 28100
LQILRVVLHLLIFDLHSSSSLTFPLPFPLALPFFIYPLNFLFLFWSFMCTFMY | 84800
LQKDKFKVELQLLDIRVSDKLLMGIEKAIREFLTQKFVICRRVFVPWVPKVLF | 61500
LQKTVNLKNIMKVSDPYVPTRNTFNYDVKISNDFFDNGDNLYGNDEEVLFYED | 61500
LQKYTQLSLLAKPLINLSNHSIQYQTLQSWYFKTLQSLEANRFRNFMLCHRIL | 62300
LQLAFYFGFIMVFVCSYMKRNTLVLLLFLLNNLCMVFRFYASDLLYQYWLIPV | 61800
LQLEMMEGIEDLDLEFDRMLDDFIIINFFIGNDFLPELPMLMVNDGAVPVILS | 85100
LQLYLSSHHREMLVDIWDRLWPWMVFFHVNRGCIADPFMLRPHPCFNLLHFIV | 65600
LQQLLLRDYFKYFIKVFQDLSTYERKSYFVFRQMAYAIISIAQGRGCIEFQCH | 43100
LQQTKRQHSAPSQISANENNIYNLGTLEEFVSSGDLTDLYHTLWNDNTSYPFL | 128000
LQQVCNVLPSFEQSSKIITDFFNTELETNEVSEVLDKTKIINDFTSSFLPSDE | 50400
LQRKNPEEQIAVNKVISLLYSNRESSYLEDTCPTENDYSDLLKGYINEIEKTL | 33800
LQRNILWGMLIFVLAQGLSSTIVVAGFLCTPLSQVWTTPTAIGGPTCINILTF | 61900
LQRPVRIMVDTKHSTVKTLVQEFVRIRPQRDHLRLAMLVLLCRDYFHKRVIVF | 49000
LQSPLYGRHILVAQQLVYYGCVILFPWLFISCALMFKFRGSWLLLYGMIDLSL | 44100
LQSSLLHPCAFYVRLLISILIEYISLPCLTIDFFFFFIFRVTFPIFFLTFFYL | 61400
LQTYMRSLEWTILTCSVIEIIEKLKMAPENMHELSPLCVKLIIKFCLTEILSY | 43400
LQVVIEECDLMPTVAVLLRDAKKVFPERDGFFLYRQMAISVVCVYILCSLFAL | 67900

Sequence | transcriptional activation domain activity
LRAEGLFQCNYLSYFIELTRYTFLFSMFLILLRSGWFGTSGLFLGMLWHQLVF | 37500
LRAIFLALLPVVYYFTYMLVLFLFLLTYYNPFSPFSHAVRPITPPLISIFSSF | 67800
LRALCFEAIRNKGQSVMIARLLQRYMGQLTWLRGGNGVSLLVMVVRDVLLEMQ | 58900
LRAMVMAAPYDGDINITFTKHRSKIYIRPNNTLSELLSNGWIKFLAIILFIYP | 36600
LRAYPVPQALQIAGNESVSPCLVRCLRLLTVLADLLYMHRGFFARALNDHPKD | 46700
LRCVGFILYLLLLIGKIMAFKEIDLLQEHQNFWAKVIYNARGSNRSWDWLSMI | 59600
LRDLERSFDLLRFTWVPSIACWILPLLTRPDFSTLLSVLGETIQRFSSNFVIM | 73700
LREGGVLAVDGTSVGSVEVIYSYSIVVHTRITFRVVARVGRCLVVCLVRWDFY | 38200
LREKGGSQQQQHQQQQQQQQQQQQQQQQQSLDTLLHHYQSLLSKSDNAIAFDD | 26800
LRELHKSSFTNSLRQWVMSGVYQLDPFVRPYLRAYAIACLRIVFHILPHLTSM | 48200
LREVYLLSLFYRIKIRFLEAGFNRLKNLIKLDTRYYIVSFTYIVLELLKAKML | 63300
LRGGYTCQLNGTPKNPDLQVWLQLNLIAYFSFLDTRACDGKTASITGSAEMPF | 51900
LRHICLLLSIWSKHLIERLKKLPANVRLTIVQALVRFVIPKLHIYGHKLLCQL | 44500
LRKSQDRLWAERPWYFYPMYFNEHGNGIFPEVVHLNDAVVIGVLHYYLIQVLL | 46400
LRLAVKNMSEDLPPLVPDIVNLVKRLKWSKAACCYYVLVSNALSLVVFLIDTY | 54900
LRLDGSYLYFADVREANVEQLRLNFTADDVIFKCLAWSIRHFMILRDNYFGSF | 46300
LRLIWVYLYRCHESGSTVTSKLESLLKHFFPPNRLIVVPQEERLEPFVCIVHF | 53100
LRLLVAWLIPQLEMWLHTNMGVRFLLIEYTPEHLGTVLALREFIGDHMFKVAG | 49000
LRLSTTISAYGIGIGYTAAVLVQVLSIVILILLESTTFALRLVLFVVGAWWLI | 46900
LRLVIENIQKYGNLVCLTCHDFRRKDLLLGVGLYFLIPCFLWVALSIELVAAR | 63600
LRLVYCQVKKKKYKSINRYVAIHELSYNVMIWRFLAIYHSSQRLKWSIFLLSF | 42100

Sequence | transcriptional activation domain activity
LRNGYVDLGTHCITLFAQLMYVDCRTVFAEQIFTLAWYTTKGMGTIIATIGDY | 43400
LRPGRQAQRRHVLALQARPALLLPPDLDARAVQPAHRQPQGPEEGGRAGPARP | 15100
LRPHRYFHTNQIYYAAILIDLILRFTWLSRLSVRINWINDLESGVFVLMFLEV | 62500
LRQRILYIYKWFLRKIYPSINAAYYLSILSFSLMYLFDNTKYSNPFLWLIHTR | 63900
LRRGFSKLLLIDDLYVLDKHLRSDRLRDLLWSAYVRAIVPRLCLIAFNFCQPF | 60800
LRSVGRGGNSLVVIGFFVMNGVGIVLERVWKRICGRSVRGIWGWIWTFSWLAL | 79900
LRWMLRCAFALTRYGTTAFLLFFVYVVFLLRVYLLTDRRRSLLYCLTATFVVE | 40100
LRWVLLPLCLFFSVCLEAHWPSISLAIVIIAYNELHMSSHWFLRGFCYAWGNA | 36800
LRWVRSNWRSNLTSLSELHMWWNYPWSLYAVFQTTITQWAFLLDCLLFACFYF | 33700
LRYALDLYRSLRAKVWENSPLILRQLEGIGKMILIISLLRKLIGVIIQLMYCF | 55500
LSADYLCQYSGSLIGKHFKSLAQVMPFIIYDLVPKTVLNAWNVIGNLVVMLWH | 46100
LSAFCCTLVDRYLLSTEYSHFSICLVRSVLNWVARGISSLLLLHFFLLLVMYE | 50600
LSAIVWQIVVDYFYDFVYLTSGLLWPPPTDFIMHTEHFYAGQLIVLLFFYTSL | 69200
LSDDEEEEGGKGREGEGRERKRRGREGKRKGGEERGRGRGREGEREGGEGEGG | 27300
LSELSSALDPTQAQYAYARIEYANDTESKRVKFILVIWIGEGTKVMRKARVSI | 37600
LSEPMAKNPYYYLCVLARIVVVKFAMLLRIIYGVYVPIYTYSAYCFLTDITLF | 62900
LSFLLSFPLPLIPHVLPSLFPCPLFLPLFPPSLPLSPFPPLPLFPPSPFFPLS | 62300
LSFRFLDYTSLTHCVDYRNPALAFNILVTCLLFLILRPKPLVLYWCLVCIGFW | 44700
LSGLFSGYLCLFVSGFHIVMTEGILVIGYLVSPVFLFFFPLPFIFVMFPLHFV | 76700
LSHFLAGLHHSVLLAYFLYFFVLPFSLLCYSIFLLYFSFGLDGIILLFYYFIF | 37100
LSHSFFSSCCCLLRTLGRFLLFIIFFLSFYFFIFTFFFFFSFQTYLLLYLLLI | 31400

Sequence | transcriptional activation domain activity
LSHSFFSSCCCLLRTLGRFLLFIIFFLSFYFLPFFFSFQTYLLLYLLLIVYFH | 29700
LSIFSWMSWIAPESLNLSTITGFNNGLGINPWPTWDWNTLLFDAADPLMIPFF | 39700
LSILIYESIPERRQSSLARSDGISAMDVCVSLLVTLAHLSPLVSRFGGVTING | 72500
LSILSSLSFSFLSSLSLSFFTLIPFLPLLLFLYSLYSHLFLLLSFILFPHPSL | 65400
LSIPLYGLGGPAFSDDDEGEDLIPEHERYIQEAIDGYWVLVLRILVSNRPRKT | 43800
LSIWVKYLGCIVRWRKVRIFGESILPIQLLVVVVLLTLRPCSICAPLKVLPYK | 66000
LSKRPGKPPARPSPQAAVQRRSFHATSSALASKDPYKTLGVGKSASASEIKKA | 39500
LSLADFAWKLSDGEEKREQCGNVAQILLNTISHRVLRTIIRHLVAVVGVLTPS | 60000
LSLAGSNYFGICWNPAVKNCIPYDTYLLWIRCMPFWYLFVFLYDILPPILIVY | 52200
LSLLLQDRPRFIFGFSFLLLKSIWCIGFYFINSRLKCMCILYILLIDILYFTF | 49800
LSLLSLCLGILHSSFKTCFVLLFVLIHICICTLFLIFSFFTPLLTIPTYVTLS | 57500
LSLLVLGCWIPCIVVMEGYLRSLTFESFPYPGLYCFTSQGSHIVYLCWVLVAV | 46200
LSLPPPLPFFPPLFPFFFLFFFYLLISFFFSFLFCGEMDLGWALQVAAATYSH | 36700
LSLVLWCCGLKKSDLAIYLAWTFLVWPGPSPIFCHLSFLLLLLAFFLLPLLSV | 78100
LSLWFLILGALSTTSSFFNIFILQWGVIRCCSVIGPGPCTESILGITQLAVQF | 51100
LSLWSHTCRHYCSVIRCKHICMILCHIRANNSLIGMIGILLVLNCTILPSNRV | 69900
LSLYRLSFPASFSLFSSFPSCLVAFPFPLPLPLPLPPSCSPFLLLLLLLLFFS | 51900
LSNANHWKFIHIDEDGKLWRSNEFLLDLRLYNQDQVVIIYRFLHYVVKCCYES | 54300
LSPGKPHQGMVRVRSPNNMVAFVNLLVRLCDLGFPAHWISDYVQSMLMDKVVT | 66400
LSPHLPPHLPPRLYFAIDSDLFLLLLLPPFDICFYLSSLLVLIFFIYLLLEVH | 30600
